Common to all, as to assay: SPR; IgGs or Fc fusions captured on antihuman Fc polyclonal antibodies amine-coupled to a CM5 chip; spike trimer or CD3 epsilon-delta heterodimer injected; blank flow cell subtracted; 1:1 Langmuir model, simultaneous global fit of ka and kd, KD = kd/ka; BIAcore 2000 (methods) or BIAcore T100 (footnote of Table S3)
The target in experiment [1] is ectodomain of the S trimer from the prototypic SARS-CoV-2 Wuhan-Hu-1 strain (SARS-CoV-2 Wuhan-Hu-1) (UniProt P0DTC2).
Experiment [2] addresses SS12, anti-S/CD3 bispecific CrossMab from S3H3/UCHT1.
In experiment [3] the target is SA07, anti-S/CD3 bispecific antibody-like molecule from ACE2-Fc/UCHT1 (UniProt Q9BYF1).

For orientation: Kd means a measure of binding affinity in units of concentration. Lower therefore signals higher affinity. A word on the koff: it is a measure of how fast the partners let go of each other. Low readings indicate slow dissociation, high ones fast dissociation. A word on the kon: it is the second-order rate constant of association. Read a high kon as fast association.

Sequence of SS12, anti-S/CD3 bispecific CrossMab from S3H3/UCHT1 (heavy, as listed by the source, chain 1 of 4): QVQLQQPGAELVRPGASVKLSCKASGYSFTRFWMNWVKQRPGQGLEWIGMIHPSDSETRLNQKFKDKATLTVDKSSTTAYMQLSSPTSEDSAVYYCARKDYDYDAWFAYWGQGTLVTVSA
Sequence of SS12, anti-S/CD3 bispecific CrossMab from S3H3/UCHT1 (heavy, as listed by the source, chain 2 of 4): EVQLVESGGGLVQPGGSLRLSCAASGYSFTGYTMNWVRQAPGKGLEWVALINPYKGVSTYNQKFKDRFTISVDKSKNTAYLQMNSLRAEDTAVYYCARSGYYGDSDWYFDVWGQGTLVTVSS
Sequence of SS12, anti-S/CD3 bispecific CrossMab from S3H3/UCHT1 (light, as listed by the source, chain 3 of 4): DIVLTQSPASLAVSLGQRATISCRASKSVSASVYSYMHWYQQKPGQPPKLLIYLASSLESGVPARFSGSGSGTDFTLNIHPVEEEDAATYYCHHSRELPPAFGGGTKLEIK
Sequence of SS12, anti-S/CD3 bispecific CrossMab from S3H3/UCHT1 (light, as listed by the source, chain 4 of 4): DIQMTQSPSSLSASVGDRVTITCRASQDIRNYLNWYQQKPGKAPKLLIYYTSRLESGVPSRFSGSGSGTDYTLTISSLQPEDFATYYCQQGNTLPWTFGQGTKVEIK

“SC02, anti-S/CD3 bispecific CrossMab from CV3-25/UCHT1 (bispecific antibody)”: in experiment [1], the Kd came out at 4.82 nM, the koff amounted to 0.00436 s⁻¹ and the kon was determined as 904000 M⁻¹ s⁻¹.
On to “ectodomain of the S trimer from the prototypic SARS-CoV-2 Wuhan-Hu-1 strain (from UniProt P0DTC2 14-1213) (domain or fragment)”, for which the Kd in experiment [2] amounted to 6.2 nM; in experiment [3], 9.39 nM.
